Data on 17 molecules can be found in patent US20140058068A1 (UNIVERSITY OF MIAMI, published 2014).

Square brackets hold non-standard residues; d marks the D form. Ends that are not written are not given here. * marks the point of attachment. Desaminotyrosyl = O=C(CCc1ccc(O)cc1)*; NMeY = CN[C@@H](Cc1ccc(O)cc1)C(=O)O; Agmatine = N=C(N)NCCCCN*; NMeA = CN[C@@H](C)C(=O)O; Nle = CCCC[C@H](N)C(=O)O; Orn = NCCC[C@H](N)C(=O)O; dAbu = CC[C@@H](N)C(=O)O; Abu = CC[C@H](N)C(=O)O; Aoc = NCCCCCCCC(=O)O; GABA = NCCCC(=O)O

The chains are these.
B1: [N-Me-Tyr^1, D-Ala^2, Orn^12, Abu^15, Orn^21, Nle^27, Asp^28, Amc^30]hGH-RH(1-30)NH2 (peptide)
chain: [NMeY][dA]DAIFTNSYR[Orn]VL[Abu]QLSAR[Orn]LLQDI[Nle]DR[Aoc]-NH2
modifications: N-terminus assumed
SMILES: CCCC[C@H](NC(=O)[C@@H](NC(=O)[C@H](CC(=O)O)NC(=O)[C@H](CCC(N)=O)NC(=O)[C@H](CC(C)C)NC(=O)[C@H](CC(C)C)NC(=O)[C@H](CCCN)NC(=O)[C@H](CCCNC(=N)N)NC(=O)[C@H](C)NC(=O)[C@H](CO)NC(=O)[C@H](CC(C)C)NC(=O)[C@H](CCC(N)=O)NC(=O)[C@H](CC)NC(=O)[C@H](CC(C)C)NC(=O)[C@@H](NC(=O)[C@H](CCCN)NC(=O)[C@H](CCCNC(=N)N)NC(=O)[C@H](Cc1ccc(O)cc1)NC(=O)[C@H](CO)NC(=O)[C@H](CC(N)=O)NC(=O)[C@@H](NC(=O)[C@H](Cc1ccccc1)NC(=O)[C@@H](NC(=O)[C@H](C)NC(=O)[C@H](CC(=O)O)NC(=O)[C@@H](C)NC(=O)[C@H](Cc1ccc(O)cc1)NC)[C@@H](C)CC)[C@@H](C)O)C(C)C)[C@@H](C)CC)C(=O)N[C@@H](CC(=O)O)C(=O)N[C@@H](CCCNC(=N)N)C(=O)NCCCCCCCC(N)=O
B2: [N-Me-Tyr^1, Abu^2, Orn^12, Abu^15, Orn^21, Nle^27, Gab^30]hGH-RH(1-30)NH2 (peptide)
peptide: [NMeY][Abu]DAIFTNSYR[Orn]VL[Abu]QLSAR[Orn]LLQDI[Nle]SR[GABA]-NH2
modifications: N-terminus assumed
SMILES: CCCC[C@H](NC(=O)[C@@H](NC(=O)[C@H](CC(=O)O)NC(=O)[C@H](CCC(N)=O)NC(=O)[C@H](CC(C)C)NC(=O)[C@H](CC(C)C)NC(=O)[C@H](CCCN)NC(=O)[C@H](CCCNC(=N)N)NC(=O)[C@H](C)NC(=O)[C@H](CO)NC(=O)[C@H](CC(C)C)NC(=O)[C@H](CCC(N)=O)NC(=O)[C@H](CC)NC(=O)[C@H](CC(C)C)NC(=O)[C@@H](NC(=O)[C@H](CCCN)NC(=O)[C@H](CCCNC(=N)N)NC(=O)[C@H](Cc1ccc(O)cc1)NC(=O)[C@H](CO)NC(=O)[C@H](CC(N)=O)NC(=O)[C@@H](NC(=O)[C@H](Cc1ccccc1)NC(=O)[C@@H](NC(=O)[C@H](C)NC(=O)[C@H](CC(=O)O)NC(=O)[C@H](CC)NC(=O)[C@H](Cc1ccc(O)cc1)NC)[C@@H](C)CC)[C@@H](C)O)C(C)C)[C@@H](C)CC)C(=O)N[C@@H](CO)C(=O)N[C@@H](CCCNC(=N)N)C(=O)NCCCC(N)=O
notes: also called Peptide 25503
B3: [Dat^1, D-Ala^2, N-Me-Ala^8, Orn^12, Abu^15, Orn^21, Nle^27, Asp^28, Agm^29]hGH-RH(1-29) (peptide)
chain: [Desaminotyrosyl][dA]DAIFT[NMeA]SYR[Orn]VL[Abu]QLSAR[Orn]LLQDI[Nle]D[Agmatine]
SMILES: CCCC[C@H](NC(=O)[C@@H](NC(=O)[C@H](CC(=O)O)NC(=O)[C@H](CCC(N)=O)NC(=O)[C@H](CC(C)C)NC(=O)[C@H](CC(C)C)NC(=O)[C@H](CCCN)NC(=O)[C@H](CCCNC(=N)N)NC(=O)[C@H](C)NC(=O)[C@H](CO)NC(=O)[C@H](CC(C)C)NC(=O)[C@H](CCC(N)=O)NC(=O)[C@H](CC)NC(=O)[C@H](CC(C)C)NC(=O)[C@@H](NC(=O)[C@H](CCCN)NC(=O)[C@H](CCCNC(=N)N)NC(=O)[C@H](Cc1ccc(O)cc1)NC(=O)[C@H](CO)NC(=O)[C@H](C)N(C)C(=O)[C@@H](NC(=O)[C@H](Cc1ccccc1)NC(=O)[C@@H](NC(=O)[C@H](C)NC(=O)[C@H](CC(=O)O)NC(=O)[C@@H](C)NC(=O)CCc1ccc(O)cc1)[C@@H](C)CC)[C@@H](C)O)C(C)C)[C@@H](C)CC)C(=O)N[C@@H](CC(=O)O)C(=O)NCCCCNC(=N)N
B4: [Dat^1, D-Abu^2, Orn^12, Abu^15, Orn^21, Nle^27, Gab^30]hGH-RH(1-30)NH2 (peptide)
chain: [Desaminotyrosyl][dAbu]DAIFTNSYR[Orn]VL[Abu]QLSAR[Orn]LLQDI[Nle]SR[GABA]-NH2
SMILES: CCCC[C@H](NC(=O)[C@@H](NC(=O)[C@H](CC(=O)O)NC(=O)[C@H](CCC(N)=O)NC(=O)[C@H](CC(C)C)NC(=O)[C@H](CC(C)C)NC(=O)[C@H](CCCN)NC(=O)[C@H](CCCNC(=N)N)NC(=O)[C@H](C)NC(=O)[C@H](CO)NC(=O)[C@H](CC(C)C)NC(=O)[C@H](CCC(N)=O)NC(=O)[C@H](CC)NC(=O)[C@H](CC(C)C)NC(=O)[C@@H](NC(=O)[C@H](CCCN)NC(=O)[C@H](CCCNC(=N)N)NC(=O)[C@H](Cc1ccc(O)cc1)NC(=O)[C@H](CO)NC(=O)[C@H](CC(N)=O)NC(=O)[C@@H](NC(=O)[C@H](Cc1ccccc1)NC(=O)[C@@H](NC(=O)[C@H](C)NC(=O)[C@H](CC(=O)O)NC(=O)[C@@H](CC)NC(=O)CCc1ccc(O)cc1)[C@@H](C)CC)[C@@H](C)O)C(C)C)[C@@H](C)CC)C(=O)N[C@@H](CO)C(=O)N[C@@H](CCCNC(=N)N)C(=O)NCCCC(N)=O

The first experiment addresses T1, GHRH receptor of human pituitary membrane homogenates (human, UniProt Q02643 23-423).
T1 construct: whole, on cells; Native receptor in pituitary membrane homogenates, not intact cells; also called hGH-RH receptor
T1 sequence (looked up): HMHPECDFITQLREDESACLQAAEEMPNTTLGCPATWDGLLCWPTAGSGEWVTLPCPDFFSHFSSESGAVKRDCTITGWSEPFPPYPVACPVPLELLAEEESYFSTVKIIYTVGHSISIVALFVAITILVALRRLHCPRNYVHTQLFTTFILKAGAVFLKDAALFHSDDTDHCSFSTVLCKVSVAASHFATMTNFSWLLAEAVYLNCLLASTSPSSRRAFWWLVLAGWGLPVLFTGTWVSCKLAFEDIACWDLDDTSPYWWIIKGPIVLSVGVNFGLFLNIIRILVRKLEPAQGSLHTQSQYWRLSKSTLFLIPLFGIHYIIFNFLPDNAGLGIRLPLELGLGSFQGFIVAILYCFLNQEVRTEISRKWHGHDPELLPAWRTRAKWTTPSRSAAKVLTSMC
Description: radioligand competition, 125I-JV-1-42 (~0.2 nM) as competitor, human pituitary membrane homogenates. An excerpt:
Normal human pituitaries were purchased from the National Hormone and Peptide Program (A. F. Parlow, Los Angeles, County Harbor-UCLA Medical Center, Torrance, Calif.).
In general terms: In a radioligand displacement assay an active substance lowers the binding of a labelled ligand.
On to B1, for which the IC50 was 1.87 nM and the “Relative affinity (Binding potency) vs JI-38” value is 2.32 fold, JI-38 = 1.
On to B2, for which the IC50 amounted to 1.18 nM and the “Relative affinity (Binding potency) vs JI-38” value was 3.67 fold, JI-38 = 1.
Take B3: the IC50 worked out at 0.86 nM and the “Relative affinity (Binding potency) vs JI-38” value was 5.06 fold, JI-38 = 1.
On to B4, for which the IC50 came out at 1.44 nM and the “Relative affinity (Binding potency) vs JI-38” value was 3.02 fold, JI-38 = 1.

A further experiment has as its target GHRH receptor of human pituitary membrane homogenates (human) (UniProt Q02643). Described as above.
The molecule “[N-Me-Tyr^1, D-Ala^2, Gln^8, Orn^12, Abu^15, Orn^21, Nle^27, Asp^28]hGH-RH(1-29)NH-CH3 (from UniProt P01286 32-60) (peptide)” came in with an IC50 of 0.16 nM and a Relative affinity (Binding potency) vs JI-38 (fold, JI-38 = 1) of 27.2.
The molecule “[Dat^1, D-Ala^2, Gln^8, Orn^12, Abu^15, Orn^21, Nle^27, Asp^28, D-Arg^29]hGH-RH(1-29)NH-CH3 (from UniProt P01286 32-60) (peptide)” gave an IC50 of 2.74 nM and a Relative affinity (Binding potency) vs JI-38 (fold, JI-38 = 1) of 1.59.
“[Dat^1, D-Ala^2, Gln^8, Orn^12, Abu^15, Orn^21, Nle^27, Asp^28]hGH-RH(1-29)NH-CH3 (from UniProt P01286 32-60) (peptide)”: the IC50 stood at 0.55 nM and the Relative affinity (Binding potency) vs JI-38 (fold, JI-38 = 1) is 7.91.
Turning to “[N-Me-Tyr^1, D-Ala^2, Fpa5^6, Orn^12, Abu^15, Orn^21, Nle^27, Gab^30]hGH-RH(1-30)NH-CH3 (from UniProt P01286 32-61) (peptide)”, the half-maximal inhibitory concentration (IC50) came out at 1.56 nM and the Relative affinity (Binding potency) vs JI-38 (fold, JI-38 = 1) came out at 2.79.
Take “[N-Me-Tyr^1, D-Ala^2, Fpa5^6, Orn^12, Abu^15, Orn^21, Nle^27, Asp^28, Agm^29]hGH-RH(1-29) (from UniProt P01286 32-60) (peptide)”: the IC50 is 3.05 nM and the Relative affinity (Binding potency) vs JI-38 (fold, JI-38 = 1) was 1.43.
Consider “[N-Me-Tyr^1, D-Ala^2, Gln^8, Orn^12, Abu^15, Orn^21, Nle^27, Asp^28, Agm^29]hGH-RH(1-29) (from UniProt P01286 32-60) (peptide)”, for which the IC50 was found to be 0.82 nM and the Relative affinity (Binding potency) vs JI-38 (fold, JI-38 = 1) came to 5.3.
Turning to “[N-Me-Tyr^1, D-Ala^2, Fpa5^6, Orn^12, Abu^15, Orn^21, Nle^27, Asp^28]hGH-RH(1-29)NH-CH3 (from UniProt P01286 32-60) (peptide)”, the IC50 was 0.87 nM and the Relative affinity (Binding potency) vs JI-38 (fold, JI-38 = 1) turned out to be 5.
Molecule “[N-Me-Tyr^1, D-Ala^2, Orn^12, Abu^15, Orn^21, Nle^27, Asp^28]hGH-RH(1-29)NH-CH3 (from UniProt P01286 32-60) (peptide)” gave an IC50 of 1.06 nM and a Relative affinity (Binding potency) vs JI-38 (fold, JI-38 = 1) of 4.1.
In the same order, the values of “[N-Me-Tyr^1, D-Ala^2, Orn^12, Abu^15, Orn^21, Nle^27, Asp^28, Agm^29]hGH-RH(1-29) (from UniProt P01286 32-60) (peptide)” are 1.7 nM and 2.56.
Take “[N-Me-Tyr^1, D-Ala^2, Gln^8, Orn^12, Abu^15, Orn^21, Nle^27, Asp^28, Apa^30]hGH-RH(1-30)NH2 (from UniProt P01286 32-61) (peptide)”: the half-maximal inhibitory concentration (IC50) is 0.71 nM and the Relative affinity (Binding potency) vs JI-38 (fold, JI-38 = 1) stood at 6.12.
Take “[N-Me-Tyr^1, D-Ala^2, Orn^12, Abu^15, Orn^21, Nle^27, Asp^28]hGH-RH(1-29)NH-CH2-CH3 (from UniProt P01286 32-60) (peptide)”: the IC50 turned out to be 1.47 nM and the Relative affinity (Binding potency) vs JI-38 (fold, JI-38 = 1) amounted to 2.96.
As for “[Ac-N-Me-Tyr^1, D-Ala^2, Gln^8, Orn^12, Abu^15, Orn^21, Nle^27, Asp^28, Agm^29]hGH-RH(1-29) (from UniProt P01286 32-60) (peptide)”, the IC50 came to 3.44 nM and the Relative affinity (Binding potency) vs JI-38 (fold, JI-38 = 1) was found to be 1.26.
In the same order, the values of “[N-Me-Tyr^1, D-Ala^2, Orn^12, Abu^15, Orn^21, Nle^27, Gab^30]hGH-RH(1-30)NH2 (from UniProt P01286 32-61) (peptide)” are 1.07 nM and 4.07.

One may read the IC50 as the concentration needed to halve the response being measured. The low end stands for greater potency in that assay, the high end for weaker potency in that assay.
